The source of these data is patent US20100210511A1, “Combination VEGFR2 Therapy with Temozolomide” (Bristol-Myers Squibb Company, priority 2009, published 2010).

For experiment [1], the system named is U87vIIILuc Glioblastoma Cells. In words: Survival of NOD-SCID mice intracranially implanted with U87vIIILuc glioblastoma cells (Example 2). Particulars: intracranial U87vIIILuc; Compound 1 60 mg/kg IP three times per week; TMZ 34 mg/kg orally once daily for five days; 6 mice per group. The experiment is classed as in vivo. The source says:
(§1) Tumor Implantation. 9 week-old male NOD-SCID mice (Charles River Laboratories, Wilmington, Mass., USA) were anesthetized by 2% isoflurane. 5×10^4 U87vIIIluc tumor cells were implanted intracranially using the following stereotactic coordinates: 0.5 mm posterior, 2.5 mm lateral, and 3.5 mm intraparenchymal Animal care was kept in strict accordance with the institutional animal care and use committee of Massachusetts General Hospital.
(§2) Drug Administration. After randomization, 24 mice were divided into 4 groups (PBS, Compound 1 only, TMZ only, and Compound 1+TMZ) with 6 mice per group. PBS and Compound 1 (60 mg/kg) were delivered intraperitoneally in 200 ul IP volumes three times per week throughout the study until mice reached established criteria for euthanasia. Temozolomide (TMZ) was delivered orally (34 mg/kg) once daily for five days.
Results are shown in FIG. 1 (Compound 1=VEGFR2 specific inhibitor represented by SEQ ID NO: 4; Compound 2=TMZ; PBS=phosphate buffered saline (vehicle control)). The Y-axis indicates percent survival within each group over the length of the study Animals were followed for survival and sacrificed at the first sign of morbidity. Mean survival was 19, 29, 32 and 47 days for PBS, Compound 1, TMZ, and Compound 1+TMZ, respectively.

Experiment [2] deals with U87vIIILuc Glioblastoma Cells. The experiment is described as follows: Bioluminescent imaging (BLI) of U87vIIILuc tumor growth (Example 2). In kind it is in vivo, NOD-SCID mice. To be noted: Compound 1 60 mg/kg IP 3x/week, TMZ 34 mg/kg orally QD×5.
Source text: as §1, §2
Scanning Mice were anesthetized using 1-2% isoflurane before intraperitoneal injection of D-luciferin salt (150 mg/kg in 200 ul PBS; Caliper Life Sciences, Hopkinton Mass.). Bioluminescent imaging (BLI) was performed in a high sensitivity, cooled CCD camera (IVIS®, Xenogen) at five-minute intervals until peak values were recorded for all mice. BLI imaging was performed on days 6, 13, 20 and 26.
Image Analysis. Living Image® software (Xenogen) was used for image capture and signal quantification. Imaging schedules are described in the treatment groups. […]

Experiment [3] concerns CD31 (endothelial blood vessel formation marker). In words: Immunohistochemical staining for CD31 on brain tissue sections (microvascular density). To be noted: Day 14 IHC analysis; compared to TMZ or PBS groups. In kind it is in vivo, NOD-SCID mice. The procedure:
IHC staining for CD31 was performed on paraffin-embedded mouse brain tissue sections using Rat on mouse HRP-Polymer® (Biocare Medical). Briefly, sections were deparaffinized, rehydrated and treated with peroxidase (PEROXIDAZED 1, Biocare Medical) for 5 min at room temperature. To expose antigens, sections were treated with trypsin (CAREZYME 1®, Biocare Medical) for 10 min at 37° C. Unspecific protein was blocked by using Rodent Block M® (Biocare Medical) for 30 min. Thereafter, sections were incubated with rat monoclonal anti-CD31 (1:50, Biocare Medical) antibody for 2 h at room temperature. Subsequently, sections were incubated with Rat Probe® (Biocare Medical) for 15 min at room temperature, followed by incubation with Rat-Polymer HRP® (Biocare Medical) for 20 min at room temperature.
To visualize antigens in the tissue, DAB chromogen substrate (Biocare Medical) were used for 5 min Finally, sections were lightly counter-stained with Mayer's hematoxylin. For a negative control, the incubation step with primary antibody was omitted.
Immunohistochemical staining against CD31 (endothelial blood vessel formation marker), Ki67 (cell proliferation marker) or cleaved-caspase 3 (cellular apoptosis marker) was performed on paraffin-embedded brain tissue sections. […]

The subject of experiment [4] is U87vIIILuc Glioblastoma Cells. The experiment is described as follows: Survival in U87vIIILuc glioma model, triple administration with radiation therapy (Example 3). In kind it is in vivo, NOD-SCID mice. To be noted: radiation insensitive glioblastoma model; compared to RT alone or standard of care (TMZ+RT). Here is the method: Tumor implantation was performed as described above in Example 2.
Drug Administration. After randomization, 32 mice were divided into 4 groups (PBS, Radiation Therapy (RT) only, Compound 2 & RT, and Compound 1+Compound 2 & RT) with 8 mice per group. PBS and Compound 1 (60 mg/kg) were delivered intraperitoneally in 200 ul IP volumes three times per week throughout the study until mice reached established criteria for euthanasia. Compound 2 (TMZ) was delivered orally (34 mg/kg) once daily for five days. Compound 2 and RT treatments were initiated after the third dose of Compound 1.
Radiation Therapy. Mice were shielded in a custom-designed block with an aperture of 0.8 cm. After anesthetic induction (ketamine 118 mg/kg i.p.+xylazine 11.8 mg/kg i.p.), mice were irradiated to a total dose of 10 Gy in three daily fractions. 10 Gy were experimentally determined to be the highest tolerable dose for this model.
Results are shown in FIG. 5 (Compound 1=VEGFR2 specific inhibitor represented by SEQ ID NO: 4; Compound 2=TMZ; RT=Radiation Therapy; PBS=phosphate buffered saline (vehicle control)). The Y-axis indicates percent survival within each group over the length of the study Animals were followed for survival and sacrificed at the first sign of morbidity. Mean survival was 22, 23, 33 and 47 days for PBS, Radiation Therapy, Compound 2 & RT, and Compound 1+Compound 2 & RT, respectively.

For `Cn1nnc2c(C(N)=O)ncn2c1=O` [TMZ, temozolomide], in experiment [1], the Mean survival is listed as 32 days. For the same molecule, in experiment [2], the “Day 13 mean BLI values (photons/sec×10^6) increased by, fold” value is recorded as 6.17×10^1 fold.

B1: Compound 1: VEGFR2 specific inhibitor represented by SEQ ID NO: 4, 10Fn3-based, modified with a single branched 40 kDa PEG at the C-terminal cysteine (protein)
chain: GEVVAATPTSLLISWRHPHFPTRYYRITYGETGGNSPVQEFTVPLQPPTATISGLKPGVDYTITVYAVTDGRNGRLLSIPISINYRTEIDKPCQ
modifications: branched 40 kDa PEG at C-terminal cysteine
Molecule B1 returned a Mean survival in experiment [1] of 29 days. Besides, the “Day 13 mean BLI values (photons/sec×10^6) increased by, fold” value in experiment [2] was 1.79×10^2 fold. Moreover, the “Blood vessel formation by CD31 staining” value in experiment [3] was “strongly reduced blood vessel formation”. Moreover, the “Survival benefit (in words)” value in experiment [4] is recorded as “can enhance survival”.
